Measurements published in US20240132578A1.

Legend:
Assay in all cases: cell-based or functional assay
[1] = biological target: HIV-1 envelope glycoprotein (Env) of isolate QH0692.42, on pseudovirus (HIV-1)
[2] = biological target: HIV-1 Env of isolate MGRM-F1-022 (pseudovirus) (HIV-1)
[3] = biological target: HIV-1 CMU02 Env (HIV-1)
[4] = biological target: HIV-1 Env of isolate MGRM-F1-020 (pseudovirus) (HIV-1)
[5] = biological target: HIV-1 envelope glycoprotein (Env) of isolate VLGCA1, subtype A (HIV-1)
[6] = biological target: HIV-1 Env of isolate MGRM-AG-009 (pseudovirus) (HIV-1)
[7] = biological target: HIV-1 envelope glycoprotein (Env) of isolate 92RW008, subtype A (HIV-1)
[8] = biological target: HIV-1 Env of isolate MGRM-AE-007 (pseudovirus) (HIV-1)
[9] = biological target: HIV-1 envelope glycoprotein (Env) of isolate APV_13, on pseudovirus (HIV-1)
[10] = biological target: HIV-1 92BR020 Env (HIV-1)
[11] = biological target: HIV-1 envelope glycoprotein (Env) of isolate PVO.4, on pseudovirus (HIV-1)
[12] = biological target: HIV-1 envelope glycoprotein (Env) of isolate MGRM-AE-001, subtype AE (HIV-1)
[13] = biological target: HIV-1 envelope glycoprotein (Env) of isolate SC422661.8, on pseudovirus (HIV-1)
[14] = biological target: HIV-1 JR-CSF Env R419A (HIV-1 (isolate JR-CSF)) (UniProt P20871)
[15] = biological target: HIV-1 JR-CSF Env N411A (HIV-1 (isolate JR-CSF)) (UniProt P20871)
[16] = biological target: HIV-1 JR-CSF Env N392Q (HIV-1 (isolate JR-CSF)) (UniProt P20871)
[17] = biological target: HIV-1 JR-CSF Env Q422A (HIV-1 (isolate JR-CSF)) (UniProt P20871)
[18] = biological target: HIV-1 Env of isolate MGRM-D-001 (pseudovirus) (HIV-1)
[19] = biological target: HIV-1 Env of isolate MGRM-F1-016 (HIV-1)
[20] = biological target: HIV-1 Env of isolate MGRM-A-007 (subtype A) (HIV-1)
[21] = biological target: HIV-1 Env of isolate MGRM-AE-005 (subtype AE) (HIV-1)
[22] = biological target: HIV-1 Env of pseudovirus isolate MGRM-C-023 (clade C) (HIV-1)
[23] = biological target: HIV-1 Env of isolate MGRM-AG-011 (subtype AG) (HIV-1)
[24] = biological target: HIV-1 Env of isolate MGRM-AG-005 (subtype AG) (HIV-1)
[25] = biological target: HIV-1 Env of isolate MGRM-C-004 (HIV-1)
[26] = biological target: HIV-1 Env of isolate 92RW008 (clade A pseudovirus) (HIV-1)
[27] = biological target: HIV-1 Env of isolate MGRM-D-016 (clade D pseudovirus) (HIV-1)
[28] = biological target: HIV-1 MGRM-AG-008 Env (pseudovirus) (HIV-1)
[29] = biological target: HIV-1 Env of isolate MGRM-A-003 (clade A pseudovirus) (HIV-1)
[30] = biological target: HIV-1 Env of pseudovirus MGRM-G-028 (HIV-1)
[31] = biological target: HIV-1 MGRM-AG-006 Env (pseudovirus) (HIV-1)
[32] = biological target: HIV-1 APV-6 envelope (Env) on pseudovirus (HIV-1)
[33] = biological target: HIV-1 Env of isolate MGRM-A-013 (clade A pseudovirus) (HIV-1)
[34] = biological target: HIV-1 Env of isolate MGRM-D-028 (clade D pseudovirus) (HIV-1)
[35] = biological target: HIV-1 Env of isolate MGRM-D-002 (clade D pseudovirus) (HIV-1)
[36] = biological target: HIV-1 VLGCA1 envelope glycoprotein (Env) on pseudovirus (HIV-1 (clade A))
[37] = biological target: HIV-1 envelope glycoprotein (Env) of isolate MGRM-C-014 (HIV-1)
[38] = biological target: HIV-1 Env of isolate MGRM-D-013 (clade D pseudovirus) (HIV-1)

With 4877_D15 (PGT-122) (antibody) the IC50, pseudovirus neutralization [1] was 0.493 mg/L, the IC50 (µg/mL), pseudovirus neutralization [2] was 0.277 µg/mL and the IC50, pseudovirus neutralization [3] was over 10 mg/L. The IC50 (µg/mL), pseudovirus neutralization [4] was 0.321 µg/mL, the IC50, pseudovirus neutralization [5] was over 50 mg/L and the IC50 (µg/mL), pseudovirus neutralization [6] was 0.128 µg/mL. For the same substance, the IC50, pseudovirus neutralization [7] was 0.003 mg/L, the IC50 (µg/mL), pseudovirus neutralization [8] was over 50 µg/mL and the IC50, pseudovirus neutralization [9] was 0.778 mg/L. For the same substance, the IC50, pseudovirus neutralization [10] was 0.0337 mg/L, the IC50, pseudovirus neutralization [11] was 0.689 mg/L and the IC50, pseudovirus neutralization [12] was over 50 mg/L. For the same substance, the IC50, pseudovirus neutralization [13] was 0.103 mg/L.

Work on 5141_B17 (PGT-126) (antibody) yielded a Fold IC50 increase relative to wild-type (pseudovirus neutralization) [14] of 1.2 fold, a Fold IC50 increase relative to wild-type (pseudovirus neutralization) [15] of 0.7 fold and an IC50, pseudovirus neutralization [1] of 0.048 mg/L. The IC50 (µg/mL), pseudovirus neutralization [2] was over 50 µg/mL, the IC50, pseudovirus neutralization [3] was over 10 mg/L and the IC50 (µg/mL), pseudovirus neutralization [4] was over 50 µg/mL. The IC50, pseudovirus neutralization [5] was over 50 mg/L, the IC50 (µg/mL), pseudovirus neutralization [6] was 0.03 µg/mL and the IC50, pseudovirus neutralization [7] was 0.008 mg/L. It also gave an IC50 (µg/mL), pseudovirus neutralization [8] of over 50 µg/mL, an IC50, pseudovirus neutralization [9] of 0.012 mg/L and an IC50, pseudovirus neutralization [10] of 0.0163 mg/L. For the same substance, the Fold IC50 increase relative to wild-type (pseudovirus neutralization) [16] was 1.6 fold, the IC50, pseudovirus neutralization [11] was 0.017 mg/L and the Fold IC50 increase relative to wild-type (pseudovirus neutralization) [17] was 1.1 fold. It also gave an IC50, pseudovirus neutralization [12] of 9.68 mg/L and an IC50, pseudovirus neutralization [13] of 0.119 mg/L.

Work on 5329_C19 (PGT-136) (antibody) yielded an IC50 (µg/mL), pseudovirus neutralization [18] of over 50 µg/mL, an IC50 (µg/mL), pseudovirus neutralization [19] of over 50 µg/mL and an IC50, pseudovirus neutralization [20] of over 50 mg/L. It also gave an IC50, pseudovirus neutralization [21] of over 50 mg/L, an IC50, pseudovirus neutralization [22] of 3.2 mg/L and an IC50, pseudovirus neutralization [23] of over 50 mg/L. It also gave an IC50, pseudovirus neutralization [24] of over 50 mg/L, an IC50, pseudovirus neutralization [10] of over 10 mg/L and an IC50 (µg/mL), pseudovirus neutralization [25] of 0.034 µg/mL.

Substance 5343_B08 (PGT-135) (antibody) has a Fold IC50 increase relative to wild-type (pseudovirus neutralization) [14] of 3.9 fold, an IC50 (µg/mL), pseudovirus neutralization [18] of over 50 µg/mL and a Fold IC50 increase relative to wild-type (pseudovirus neutralization) [15] of 0.2 fold. The IC50 (µg/mL), pseudovirus neutralization [19] was over 50 µg/mL, the IC50, pseudovirus neutralization [20] was over 50 mg/L and the IC50, pseudovirus neutralization [21] was over 50 mg/L. The IC50, pseudovirus neutralization [22] was 0.051 mg/L, the IC50, pseudovirus neutralization [23] was over 50 mg/L and the IC50, pseudovirus neutralization [24] was over 50 mg/L. For the same substance, the IC50, pseudovirus neutralization [10] was 0.104 mg/L, the Fold IC50 increase relative to wild-type (pseudovirus neutralization) [16] was over 250 fold and the Fold IC50 increase relative to wild-type (pseudovirus neutralization) [17] was 0.8 fold. For the same substance, the IC50 (µg/mL), pseudovirus neutralization [25] was 0.046 µg/mL.

For 5345_I01 (PGT-137) (antibody), the IC50 (µg/mL), pseudovirus neutralization [18] was over 50 µg/mL, the IC50 (µg/mL), pseudovirus neutralization [19] was over 50 µg/mL and the IC50, pseudovirus neutralization [20] was over 50 mg/L. The IC50, pseudovirus neutralization [21] was over 50 mg/L, the IC50, pseudovirus neutralization [22] was 0.23 mg/L and the IC50, pseudovirus neutralization [23] was over 50 mg/L. It also gave an IC50, pseudovirus neutralization [24] of over 50 mg/L and an IC50 (µg/mL), pseudovirus neutralization [25] of 0.026 µg/mL.

PGV04 (antibody) showed an IC50 (µg/mL), pseudovirus neutralization [6] of 0.148 µg/mL and an IC50 (µg/mL), pseudovirus neutralization [8] of 5.75 µg/mL.

For b12 (antibody), the IC50 (µg/ml), pseudovirus neutralization [26] was 9.46 µg/mL, the IC50, pseudovirus neutralization [27] was 1.12 mg/L and the IC50 (µg/ml), pseudovirus neutralization [28] was over 50 µg/mL. For the same substance, the IC50 (µg/ml), pseudovirus neutralization [29] was over 50 µg/mL, the IC50 (µg/ml), pseudovirus neutralization [30] was over 50 µg/mL and the IC50 (µg/ml), pseudovirus neutralization [31] was over 50 µg/mL. The neutralization IC50 [32] was over 25 mg/L, the IC50 (µg/ml), pseudovirus neutralization [33] was 7.04 µg/mL and the IC50, pseudovirus neutralization [34] was 0.78 mg/L. The IC50, pseudovirus neutralization [35] was over 50 mg/L, the IC50 (µg/ml), pseudovirus neutralization [36] was over 50 µg/mL and the IC50 (µg/ml), pseudovirus neutralization [37] was over 50 µg/mL. For the same substance, the IC50, pseudovirus neutralization [38] was over 50 mg/L.
